{
  "source": "patent US20130261013A1",
  "about": "(MODPRO, published 2013)",
  "binders": {"B1": {"name": "4-C15L8-PP1* (fluorescein on Cys-24) (designed binder)", "chain": "NAADLEAK(PP1)IRHLREKLAARGPRDC(fluorescein maleimide)AQLAEQLARRFERFARAG-NH2", "modifications": "not fully specified (N-terminus); also: PP1 chelating two Zn2+, group on Lys15 not given here"}},
  "key": {"α-casein [1]": {"molecular_target": "T1, α-casein (UniProt P02662 16-214, between 8 and 13 phosphate groups, at serine side chains)", "T1 construct": "Commercial α-casein is a mixture of subtypes; also called a-casein", "T1 sequence (looked up)": "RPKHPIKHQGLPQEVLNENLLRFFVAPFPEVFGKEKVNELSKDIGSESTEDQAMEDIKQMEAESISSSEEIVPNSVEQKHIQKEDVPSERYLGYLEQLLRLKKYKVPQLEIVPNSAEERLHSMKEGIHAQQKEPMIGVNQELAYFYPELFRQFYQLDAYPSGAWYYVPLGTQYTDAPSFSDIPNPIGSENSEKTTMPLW", "experiment": "fluorescence titration, binder fixed at 100 nM, plotted against the free concentration of α-casein [lower panel, [a-casein]free]", "protocol": "(§1) For a more accurate determination of the dissociation constant, titration with protein at a binder concentration of 100 nM in 10 mM HEPES buffer and 150 mM NaCl at pH 7.2 was carried out (FIG. 12). At this concentration a more strongly emitting probe was required and fluorescein was attached to the side chain of Cys-24 by reacting the maleimide group with the free thiol of the polypeptide after removal of the acetamidomethyl (Acm) protection group. The binder concentration was kept constant at 100 nM and a series of samples were prepared where only the concentration of α-casein was varied."}, "α-casein [2]": {"molecular_target": "T1, α-casein", "experiment": "fluorescence titration, binder fixed at 100 nM, concentration of total α-casein varied [upper panel, [a-casein]tot]", "protocol": "as §1\n(§2) A series of solutions were prepared. […] All solutions were prepared in HEPES buffer (pH=7.2, 10 mM HEPES, 150 mM NaCl)."}, "α-casein [3]": {"molecular_target": "T1, α-casein", "experiment": "fluorescence titration, 100 nM fluorescein labelled binder, α-casein 1 nM to 10 µM, 1:1 model", "protocol": "as §1, §2"}, "α-casein [4]": {"molecular_target": "T1, α-casein", "experiment": "three-step fluorescence titration, 500 nM binder; rough estimate", "protocol": "In a preliminary and simple assay executable in microtitre plate format, each of the eight binder candidates at a concentration of 500 nM in 10 mM HEPES buffer and 150 mM NaCl at pH 7.2, equipped with the fluorophor 7-methoxycoumarin-3-carboxylic acid, were titrated with α-casein in three steps (FIG. 8). Concentrations of peptides were determined from the absorbance of the coumarine probe and stock solutions at concentrations of 5 μM were prepared from which aliqiuots were transferred to the microtitre plate. […] Saturation within experimental error at those concentrations is compatible with low nM affinity and tight binding.\nIn contrast, the differences in relative responses to increased concentrations of α-casein are related to differences in affinity. […] Nevertheless, it is a quick and informative experiment. From the fluorescence titrations the 4-series of binder candidates was estimated to have dissociation constants of around 5 nM or lower. […] It is concluded that the 3-series binders have dissociation constants in the high nM to the μM range. The nearly identical affinities within the 3-series and within the 4-series is probably fortuitous."}},
  "note": "Ends that are not written are not given here. * marks the point of attachment. PP1 = 3,5-bis[[bis(2-pyridylmethyl)amino]methyl]benzoic acid, O=C(c1cc(CN(Cc2ccccn2)Cc2ccccn2)cc(CN(Cc2ccccn2)Cc2ccccn2)c1)*; X2 = 7‑methoxycoumarin‑3‑carboxylic acid, COc1ccc2cc(C(=O)*)c(=O)oc2c1",
  "data": [
    {"binder": "B1", "values": [
      {"measurement": "EC50 (read off the curve)", "setting": "α-casein [1]", "result": "~20", "unit": "nM"},
      {"measurement": "EC50 (read off the curve)", "setting": "α-casein [2]", "result": "~70", "unit": "nM"},
      {"measurement": "Kd", "setting": "α-casein [3]", "result": 17, "unit": "nM"}
    ]},
    {"binder": "NAADLEARIRHLRERLAARGPK(PP1)DCK(X2)QLAEQLARAFERFARAG-NH2 (designed binder, not fully specified (residue 24, N-terminus); also: two Zn2+ chelated by PP1, Named only as a member of the 4-series)", "note": "[4-C25L22-PP1 (coumarin form, with Zn2+)]", "values": [
      {"measurement": "Kd", "setting": "α-casein [4]", "result": "≤ 5", "unit": "nM"}
    ]}
  ]
}
